{
  "source": "paper PMC6210652",
  "about": "“Virus Sensor RIG-I Represses RNA Interference by Interacting with TRBP through LGP2 in Mammalian Cells”",
  "binders": {"B1": {"name": "siLuc-36 (dsRNA)", "RNA 1": "UCUUCCAGCGGAUAGAAUGGC", "RNA 2": "CAUUCUAUCCGCUGGAAGAUG"}},
  "experiment_in_all_cases": "EMSA; 3 uM protein, 0.5 nM siRNA, 1.5 mM Mg2+; 20 mM Tris pH 8.0, 1.5 mM MgCl2, 50 mM NaCl, 1.5 mM DTT, 100 ng/uL sonicated salmon sperm DNA, 5% glycerol, 0.4 U/mL RNasin; 30 min on ice; 9% PAGE in 0.25x TBE",
  "conditions_in_all_cases": "protein: recombinant; label: 5'-32P on guide strand; siRNA duplex 21-nt strands, 19 bp, 3' overhangs 2 nt on both strands",
  "key": {"[1]": {"molecular_target": "T1, RIG-I (UniProt O95786 1-925)", "T1 sequence": "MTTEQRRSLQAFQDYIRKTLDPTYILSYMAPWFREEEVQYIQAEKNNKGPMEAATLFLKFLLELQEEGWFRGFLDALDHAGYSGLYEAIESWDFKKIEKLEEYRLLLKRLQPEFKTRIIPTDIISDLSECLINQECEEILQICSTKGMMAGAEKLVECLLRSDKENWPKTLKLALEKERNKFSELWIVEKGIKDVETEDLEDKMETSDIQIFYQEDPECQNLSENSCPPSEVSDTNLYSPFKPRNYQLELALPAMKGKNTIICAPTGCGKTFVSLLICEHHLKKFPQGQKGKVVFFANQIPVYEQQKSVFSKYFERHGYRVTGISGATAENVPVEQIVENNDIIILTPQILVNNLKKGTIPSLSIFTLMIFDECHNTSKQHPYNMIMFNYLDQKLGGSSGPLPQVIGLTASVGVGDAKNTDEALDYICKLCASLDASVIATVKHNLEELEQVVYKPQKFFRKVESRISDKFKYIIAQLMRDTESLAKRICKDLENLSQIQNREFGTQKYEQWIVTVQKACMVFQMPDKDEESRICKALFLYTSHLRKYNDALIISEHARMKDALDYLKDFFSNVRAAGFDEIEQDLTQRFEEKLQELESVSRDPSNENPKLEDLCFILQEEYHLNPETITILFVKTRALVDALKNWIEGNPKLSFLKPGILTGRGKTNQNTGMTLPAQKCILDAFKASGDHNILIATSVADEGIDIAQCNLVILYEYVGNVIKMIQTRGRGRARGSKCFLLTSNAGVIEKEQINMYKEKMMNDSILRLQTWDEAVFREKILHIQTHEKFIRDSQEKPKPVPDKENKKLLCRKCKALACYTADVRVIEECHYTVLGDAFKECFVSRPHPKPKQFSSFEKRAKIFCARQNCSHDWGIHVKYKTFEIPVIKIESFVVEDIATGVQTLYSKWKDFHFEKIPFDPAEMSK"}, "[2]": {"molecular_target": "T2, LGP2 (UniProt Q96C10 1-678)", "T2 sequence": "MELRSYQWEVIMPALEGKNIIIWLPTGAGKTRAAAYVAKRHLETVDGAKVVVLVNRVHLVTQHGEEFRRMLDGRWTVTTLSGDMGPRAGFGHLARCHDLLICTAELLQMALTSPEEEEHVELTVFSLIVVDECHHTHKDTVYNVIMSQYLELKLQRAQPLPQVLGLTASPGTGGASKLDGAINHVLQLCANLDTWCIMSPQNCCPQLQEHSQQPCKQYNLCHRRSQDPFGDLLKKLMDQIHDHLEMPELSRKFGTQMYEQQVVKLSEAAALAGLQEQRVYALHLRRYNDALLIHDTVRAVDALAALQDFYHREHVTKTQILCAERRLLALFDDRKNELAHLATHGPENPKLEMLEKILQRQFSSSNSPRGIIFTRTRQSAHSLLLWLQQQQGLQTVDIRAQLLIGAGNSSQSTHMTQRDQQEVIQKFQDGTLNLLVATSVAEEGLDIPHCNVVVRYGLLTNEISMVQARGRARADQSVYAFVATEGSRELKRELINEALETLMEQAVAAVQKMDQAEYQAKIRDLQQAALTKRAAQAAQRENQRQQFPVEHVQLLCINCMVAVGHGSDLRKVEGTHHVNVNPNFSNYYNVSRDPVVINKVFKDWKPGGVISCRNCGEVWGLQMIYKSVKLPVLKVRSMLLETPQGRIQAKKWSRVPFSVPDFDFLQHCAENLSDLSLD"}, "[3]": {"molecular_target": "T3, MDA5 (UniProt Q9BYX4 1-1025)", "T3 sequence": "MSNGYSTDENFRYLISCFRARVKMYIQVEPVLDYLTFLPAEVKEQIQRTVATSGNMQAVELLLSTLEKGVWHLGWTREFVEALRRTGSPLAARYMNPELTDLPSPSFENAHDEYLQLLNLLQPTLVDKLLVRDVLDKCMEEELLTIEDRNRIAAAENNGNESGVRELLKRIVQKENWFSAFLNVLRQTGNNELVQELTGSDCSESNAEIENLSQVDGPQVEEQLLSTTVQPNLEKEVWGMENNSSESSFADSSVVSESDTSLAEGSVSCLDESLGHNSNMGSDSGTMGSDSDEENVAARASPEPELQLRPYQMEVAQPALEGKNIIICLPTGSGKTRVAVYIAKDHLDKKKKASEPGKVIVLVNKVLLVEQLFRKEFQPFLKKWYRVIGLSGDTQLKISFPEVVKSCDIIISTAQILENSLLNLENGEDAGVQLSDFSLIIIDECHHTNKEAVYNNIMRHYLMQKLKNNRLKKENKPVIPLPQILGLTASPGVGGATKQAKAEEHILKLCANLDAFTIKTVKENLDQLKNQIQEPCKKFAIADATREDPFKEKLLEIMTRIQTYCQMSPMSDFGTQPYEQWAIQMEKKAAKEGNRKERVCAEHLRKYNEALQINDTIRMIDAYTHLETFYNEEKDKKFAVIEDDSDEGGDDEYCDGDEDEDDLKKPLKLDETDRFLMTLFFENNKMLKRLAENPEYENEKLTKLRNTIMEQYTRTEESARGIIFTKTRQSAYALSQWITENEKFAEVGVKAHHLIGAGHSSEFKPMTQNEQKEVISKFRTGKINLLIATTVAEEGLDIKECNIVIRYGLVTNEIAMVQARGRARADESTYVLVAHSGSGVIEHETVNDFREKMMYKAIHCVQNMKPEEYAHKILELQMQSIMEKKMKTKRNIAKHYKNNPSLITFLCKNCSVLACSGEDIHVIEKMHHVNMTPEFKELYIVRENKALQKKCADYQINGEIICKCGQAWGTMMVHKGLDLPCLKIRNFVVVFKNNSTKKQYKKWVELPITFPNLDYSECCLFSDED"}},
  "data": [
    {"binder": "B1", "values": [
      {"measurement": "binding result", "setting": "[1]", "value": "binds"},
      {"measurement": "binding result", "setting": "[2]", "value": "binds"},
      {"measurement": "binding result", "setting": "[3]", "value": "no binding"}
    ]}
  ]
}
